Experimental findings from paper PMC6248932 are described below.

The stoichiometry N is a count of units in the complex or per binding partner.

Assay [1] addresses BG505 UFO gp140 trimer (HIV-1 (clade A, strain BG505)). In words: native gel or EMSA.
Assay [2] has the same target. In words: SEC.
Assay [3] concerns the target clade B tier 3 H078.14 UFO-BG gp140 trimer (HIV-1 (clade B, strain H078.14) | HIV-1 (clade A, strain BG505)). In words: crystal structure.
Assay [4] addresses BG505 SOSIP.664 gp140 trimer (HIV-1 (clade A, strain BG505)) (UniProt Q2N0S6). In words: native gel or EMSA.
The target is the same in assay [5]. In words: SEC.

As for BG505 UFO gp140 trimer, the stoichiometry N in assay [1] and in assay [2] was 3 in each case.
For “clade B tier 3 H078.14 UFO-BG gp140 trimer”, in assay [3], the stoichiometry N was 3.
Turning to “BG505 SOSIP.664 gp140 trimer (from UniProt Q2N0S6 31-505) (complex)”, the stoichiometry N in assay [4] and in assay [5] was 3 throughout.
